Blank lines part the entries; values can stand above or below the binder they belong to.
Assays:
[1] = biological target: H2BS6ADPr1 nucleosome, P68431
[2] = biological target: PARP1 (full-length, N-terminal 6xHis-tag) (UniProt P09874)
[3] = biological target: PARP1 (full-length, N-terminal 6xHis-tag) (UniProt P09874); remark: listed apart in the source

Chain of PARP1 (full-length, N-terminal 6xHis-tag) (P09874 whole entry): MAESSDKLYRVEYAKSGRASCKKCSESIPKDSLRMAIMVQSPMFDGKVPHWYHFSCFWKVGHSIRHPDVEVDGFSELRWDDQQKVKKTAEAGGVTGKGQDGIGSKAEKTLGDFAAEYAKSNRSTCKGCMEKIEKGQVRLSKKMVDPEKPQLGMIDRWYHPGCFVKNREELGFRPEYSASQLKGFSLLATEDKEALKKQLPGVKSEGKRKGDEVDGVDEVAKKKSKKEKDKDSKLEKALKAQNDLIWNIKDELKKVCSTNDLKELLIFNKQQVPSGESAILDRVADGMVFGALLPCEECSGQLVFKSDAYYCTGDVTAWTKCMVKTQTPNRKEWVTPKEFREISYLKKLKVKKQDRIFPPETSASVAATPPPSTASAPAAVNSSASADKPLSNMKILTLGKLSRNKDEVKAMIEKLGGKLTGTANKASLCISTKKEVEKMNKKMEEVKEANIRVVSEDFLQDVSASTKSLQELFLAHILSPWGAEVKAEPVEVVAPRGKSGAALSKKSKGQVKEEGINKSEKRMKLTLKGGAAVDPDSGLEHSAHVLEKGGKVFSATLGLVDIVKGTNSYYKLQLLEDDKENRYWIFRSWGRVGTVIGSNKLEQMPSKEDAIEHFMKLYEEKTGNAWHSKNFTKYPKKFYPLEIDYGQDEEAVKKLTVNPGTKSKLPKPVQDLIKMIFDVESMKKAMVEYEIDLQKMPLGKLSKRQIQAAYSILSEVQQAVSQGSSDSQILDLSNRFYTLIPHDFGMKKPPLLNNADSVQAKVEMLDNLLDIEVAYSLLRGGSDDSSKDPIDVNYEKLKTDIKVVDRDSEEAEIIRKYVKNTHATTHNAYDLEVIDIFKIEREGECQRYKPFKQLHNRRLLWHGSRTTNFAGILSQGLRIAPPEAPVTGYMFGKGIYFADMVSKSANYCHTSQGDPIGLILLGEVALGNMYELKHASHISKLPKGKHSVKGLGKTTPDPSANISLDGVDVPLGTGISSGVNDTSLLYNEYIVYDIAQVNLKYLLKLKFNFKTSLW

- ALC1 nucleosome remodeling rate constant (REA assay) [1]: < 0.0003 min⁻¹
B1: ALC1 (full-length, 6xHis-1xFLAG-ALC1), Q86WJ1 1-897 (enzyme)
chain: MERAGATSRGGQAPGFLLRLHTEGRAEAARVQEQDLRQWGLTGIHLRSYQLEGVNWLAQRFHCQNGCILGDEMGLGKTCQTIALFIYLAGRLNDEGPFLILCPLSVLSNWKEEMQRFAPGLSCVTYAGDKEERACLQQDLKQESRFHVLLTTYEICLKDASFLKSFPWSVLVVDEAHRLKNQSSLLHKTLSEFSVVFSLLLTGTPIQNSLQELYSLLSFVEPDLFSKEEVGDFIQRYQDIEKESESASELHKLLQPFLLRRVKAEVATELPKKTEVVIYHGMSALQKKYYKAILMKDLDAFENETAKKVKLQNILSQLRKCVDHPYLFDGVEPEPFEVGDHLTEASGKLHLLDKLLAFLYSGGHRVLLFSQMTQMLDILQDYMDYRGYSYERVDGSVRGEERHLAIKNFGQQPIFVFLLSTRAGGVGMNLTAADTVIFVDSDFNPQNDLQAAARAHRIGQNKSVKVIRLIGRDTVEEIVYRKAASKLQLTNMIIEGGHFTLGAQKPAADADLQLSEILKFGLDKLLASEGSTMDEIDLESILGETKDGQWVSDALPAAEGGSRDQEEGKNHMYLFEGKDYSKEPSKEDRKSFEQLVNLQKTLLEKASQEGRSLRNKGSVLIPGLVEGSTKRKRVLSPEELEDRQKKRQEAAAKRRRLIEEKKRQKEEAEHKKKMAWWESNNYQSFCLPSEESEPEDLENGEESSAELDYQDPDATSLKYVSGDVTHPQAGAEDALIVHCVDDSGHWGRGGLFTALEKRSAEPRKIYELAGKMKDLSLGGVLLFPVDDKESRNKGQDLLALIVAQHRDRSNVLSGIKMAALEEGLKKIFLAAKKKKASVHLPRIGHATKGFNWYGTERLIRKHLAARGIPTYIYYFPRSKSAVLHSQSSSSSSRQLVP
modifications: here or on the partner: mono-ADP-ribose on S6

- share of mono-ADP-ribosylated H3 (1-20) peptide among the products of the PARP1 ADPr reaction (RP-HPLC), HPF1 from 5 μM to 100 μM [2]: 94%
- inhibition of PARP1-catalyzed ADP-ribose polymerization from the H3S10ADPr1 peptide (RP-HPLC); HPF1 concentration at 50% inhibition [3]: 14 µM
B2: FLAG-HPF1 (amino acids 27-346) (natural protein)
chain: KFCEADVSSDLRKEVENHYKLSLPEDFYHFWKFCEELDPEKPSDSLSASLGLQLVGPYDILAGKHKTKKKSTGLNFNLHWRFYYDPPEFQTIIIGDNKTQYHMGYFRDSPDEFPVYVGINEAKKNCIIVPNGDNVFAAVKLFLTKKLREITDKKKINLLKNIDEKLTEAARELGYSLEQRTVKMKQRDKKVVTKTFHGAGLVVPVDKNDVGYRELPETDADLKRICKTIVEAASDEERLKAFAPIQEMMTFVQFANDECDYGMGLELGMDLFCYGSHYFHKVAGQLLPLAYNLLKRNLFAEIIEEHLANRSQENIDQLAA

Reference: PMC8683085, “Serine ADP-ribosylation marks nucleosomes for ALC1-dependent chromatin remodeling” (eLife, 2021)
